In publication PMC10439915, “Development of an interfering peptide M1-20 with potent anti-cancer effects by targeting FOXM1” (Cell Death & Disease, 2023):
Non-standard residues stand in square brackets, D forms with d. No end group written: not given here.

Assays:
FOXM1_1-138 [1] = biological target: T1, FOXM1_1-138 (Homo sapiens, UniProt Q08050); test: Biotin-peptide pull-down of recombinant FOXM1_1-138; assay type: binding; conditions: biotin-labeled peptide (10 μg), recombinant protein (50 μg), Streptavidin Agarose Resin
T1 construct: The cDNA of FOXM1(1-138aa) was PCR amplified from pCMV-FOXM1 plasmid; EGFP (C); His (pET-32a vector; Ni-Sepharose purification); made in house; host or cells: E. coli Rosetta/DE3
T1 sequence (Q08050 1-138 isoform Q08050-2): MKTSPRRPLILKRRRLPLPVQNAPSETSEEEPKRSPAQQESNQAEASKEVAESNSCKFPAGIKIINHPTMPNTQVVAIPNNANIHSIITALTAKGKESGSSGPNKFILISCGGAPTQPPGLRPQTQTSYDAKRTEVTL
Method: (§1) Fig. 2 The screening of the FOXM1-interacting peptide M1-20. A The diagram of peptide array (P1-P9) in which peptides (20-mer) covering FOXM1_689-748 with a shifting window of five residues were conjugated to the cell-penetrating peptide TAT and produced by solid-phase peptide synthesis. The P1-P9 peptides were biotin-labeled respectively and added in MDA-MB-231 cell lysates (500 μg) which were incubated with Streptavidin Agarose Resin to pull down biotin-peptide/protein complexes. Biotin and FOXM1 proteins in samples were detected by Western Blotting with certain antibodies. 10% of cell lysates (50 μg) were used as input controls. […] The absorbance at 450 nm and the relative cell viability in each well was calculated. […] GST-tag and Biotin-tag were detected by Western Blotting with certain antibodies. […] E The curve represented the quantification of binding affinity between GFP-labeled FOXM1_1-138 and P5 or P5mut by Microscale Thermophoresis (MST, Monolith NT.115, NanoTemper). Data points indicated the fraction of FOXM1_1-138-bound peptide (ΔNormal/Amplitude) at different concentrations, and curves indicated the calculated fits. […] F The biotin signals indicated the peptide stability of P5 and M1-20 in HEK293T cell lysates analyzed by Western Blotting. The levels of peptide were quantified by Image J software and graphed with GraphPad Prism 9 (n = 3). […]

endogenous FOXM1 = biological target: T2, endogenous FOXM1 (Homo sapiens, UniProt Q08050); test: Biotin-peptide pull-down of endogenous FOXM1 from MDA-MB-231 cell lysates; assay type: binding; conditions: biotin-labeled peptide, MDA-MB-231 cell lysates (500 μg), Streptavidin Agarose Resin, Western Blotting
T2 construct: endogenous in cells; host or cells: MDA-MB-231 cell lysates
T2 sequence (Q08050 1-763): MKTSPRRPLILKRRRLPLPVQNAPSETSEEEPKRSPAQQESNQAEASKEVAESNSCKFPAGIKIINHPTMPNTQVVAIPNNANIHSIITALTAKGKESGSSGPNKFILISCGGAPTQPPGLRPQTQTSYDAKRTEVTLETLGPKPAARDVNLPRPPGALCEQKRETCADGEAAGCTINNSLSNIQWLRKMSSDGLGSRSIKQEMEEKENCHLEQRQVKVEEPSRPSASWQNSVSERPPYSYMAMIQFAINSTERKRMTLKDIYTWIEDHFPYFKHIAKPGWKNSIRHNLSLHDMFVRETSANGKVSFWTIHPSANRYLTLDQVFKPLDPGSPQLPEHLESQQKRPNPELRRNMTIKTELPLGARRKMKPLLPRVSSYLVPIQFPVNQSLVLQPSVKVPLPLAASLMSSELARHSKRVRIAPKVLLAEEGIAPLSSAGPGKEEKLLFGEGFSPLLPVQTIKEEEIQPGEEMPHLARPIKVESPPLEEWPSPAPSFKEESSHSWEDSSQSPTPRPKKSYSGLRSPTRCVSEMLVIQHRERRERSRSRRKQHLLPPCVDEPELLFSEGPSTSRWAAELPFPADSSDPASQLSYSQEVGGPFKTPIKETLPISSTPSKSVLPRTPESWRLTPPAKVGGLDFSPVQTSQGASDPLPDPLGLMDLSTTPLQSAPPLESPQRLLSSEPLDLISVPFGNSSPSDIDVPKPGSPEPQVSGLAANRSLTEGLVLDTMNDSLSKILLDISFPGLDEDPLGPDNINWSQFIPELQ
Method: as §1

MDA-MB-231 cells = test: CCK-8 cell viability; assay type: cell-based, human; conditions: 0, 10, 20, 40, 80, 160 µM, 36 h, n = 3
Method: as §1

FOXM1_1-138 [2] = biological target: T1, FOXM1_1-138; test: Microscale thermophoresis binding of peptide to GFP-labeled FOXM1_1-138; conditions: MST, Monolith NT.115, peptide 0.030 to 1000 μM in PBS with 0.05% Tween-20, 25 °C, mean of three independent measurements
Method: Measurements were performed by Monolith NT.115 instrument (NanoTemper). The data were analyzed by MO. Affinity Analysis v2.3 NT software (NanoTemper) to determine interaction parameters. Details were described in the supplemental materials and methods.
as §1, with “The P1-P9 peptides were biotin-labeled respectively and added in MDA-MB-231 cell lysates (500 μg) which were incubated with Streptavidin Agarose Resin to pull down biotin-peptide/protein complexes.” left out, “antibodies.” for “antibodies. 10% of cell lysates (50 μg) were used as input controls.”

[3] = biological target: T3, GFP-labeled FOXM1_(1-138) (human, UniProt Q08050-3 1-138); test: MST; GFP-labeled FOXM1(1-138) with peptide at different concentrations; Monolith NT.115 (NanoTemper), MO.Affinity Analysis v2.3; three independent measurements; conditions: both partners purified
T3 construct: The fluorescent partner of the MST; Details are in the supplemental materials and methods
T3 sequence (looked up): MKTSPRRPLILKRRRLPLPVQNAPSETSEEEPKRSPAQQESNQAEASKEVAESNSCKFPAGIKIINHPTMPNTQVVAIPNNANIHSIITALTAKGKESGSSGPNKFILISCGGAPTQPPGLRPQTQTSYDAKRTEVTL

His-FOXM1 = biological target: T4, His-FOXM1 (UniProt Q08050-2 1-748); test: EMSA; plus M1-20 peptide (5 and 10 uM in legend; 0.5, 1 and 2 uM in Suppl. Methods); DNA binding not disrupted; 20 mM Tris-Cl pH 7.6, 50 mM KCl, 10% glycerol, 0.5 mM EDTA, 0.2 mM DTT, 30 min on ice; 4% native PAGE in 0.5x TBE; conditions: protein: recombinant; tags: His; label: 5'-FAM on forward strand (hot); blunt
T4 sequence: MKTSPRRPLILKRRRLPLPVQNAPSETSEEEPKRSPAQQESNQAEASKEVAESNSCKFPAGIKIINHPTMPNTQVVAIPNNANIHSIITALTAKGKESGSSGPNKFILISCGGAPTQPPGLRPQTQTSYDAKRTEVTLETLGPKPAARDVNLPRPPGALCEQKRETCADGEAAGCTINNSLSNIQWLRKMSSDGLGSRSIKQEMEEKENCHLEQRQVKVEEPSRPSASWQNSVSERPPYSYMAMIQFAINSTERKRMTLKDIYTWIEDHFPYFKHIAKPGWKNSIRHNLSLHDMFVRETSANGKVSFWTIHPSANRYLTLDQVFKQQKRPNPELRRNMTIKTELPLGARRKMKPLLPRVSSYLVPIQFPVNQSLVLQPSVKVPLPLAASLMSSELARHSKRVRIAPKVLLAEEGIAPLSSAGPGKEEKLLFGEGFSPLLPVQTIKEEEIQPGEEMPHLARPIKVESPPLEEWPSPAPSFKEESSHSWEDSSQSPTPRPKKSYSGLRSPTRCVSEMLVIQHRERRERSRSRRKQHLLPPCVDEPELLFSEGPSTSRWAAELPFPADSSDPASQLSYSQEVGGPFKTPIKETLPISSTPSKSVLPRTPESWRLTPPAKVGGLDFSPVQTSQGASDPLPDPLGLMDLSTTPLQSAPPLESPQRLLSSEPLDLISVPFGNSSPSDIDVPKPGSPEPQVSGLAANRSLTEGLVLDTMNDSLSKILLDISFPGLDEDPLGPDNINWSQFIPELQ

## P5: the sequence 709-728aa of FOXM1, 20-mer conjugated with TAT cell-penetrating sequence; natural parent peptide of M1-20
FOXM1_1-138 [1]
  binding to recombinant FOXM1_1-138 (pull-down): bind to recombinant GST-FOXM1_1-138 protein
Endogenous FOXM1
  interaction with endogenous FOXM1 (pull-down): interacted with endogenous FOXM1 with variable affinities
MDA-MB-231 cells
  inhibition of MDA-MB-231 cells in the P1-P9 library screen: significantly inhibited MDA-MB-231 breast cancer cells in a dose-dependent manner

## P5mut: P5 with three residues mutated (L721A, I723A, S724A) (LDTMNDSLSKILADAAFPGL; also: conjugated to TAT cell-penetrating sequence (as parent P5))
FOXM1_1-138 [2]
  KD, binding affinity to FOXM1_1-138: unmeasurable

## [dL]G[dP][dF][dS][dI][dD][dL][dL][dI][dK][dS][dL][dS][dD][dN][dM][dT][dD][dL] [M1-20]
[3]
  Kd: 5.66 µM

## [dL]G[dP][dF][dA][dA][dD][dA][dL][dI][dK][dS][dL][dS][dD][dN][dM][dT][dD][dL] [M1-20mut]
[3]
  Kd: 386 µM

B1: FAM-labeled FOXM1 EMSA probe (dsDNA)
DNA 1: TTTGTTTATTTGTTTGTTTATTTG
DNA 2: CAAATAAACAAACAAATAAACAAA
His-FOXM1
  binding result: binds

## LDTMNDSLSKILLDISFPGL (also: conjugated to TAT cell-penetrating sequence) [P5]
[3]
  Kd: 43.1 µM
